Laboratory results: patent US20090047282

Legend:
[1] = system: Shh-(24-45), 22-mer peptide of amino acids 24 to 45 of human Shh, biotin at the C-terminal lysine
[2] = system: human Shh-N (cysteine residue at the 24th position up to the glycine residue at the 197th position of human Shh), E. coli recombinant, histidine tag excised with enterokinase

Sequence of Shh-(24-45), 22-mer peptide of amino acids 24 to 45 of human Shh, biotin at the C-terminal lysine (chain, as listed by the source): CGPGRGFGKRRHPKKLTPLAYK

Substance | radioactivity of [3H] palmitic acid added to the substrate peptide against the peptide's concentration (reaction time 1 hour) [1] | radioactivity of [3H] palmitic acid added to the substrate peptide against the reaction time (10 uM peptide) [1] | radioactivity of [14C] palmitic acid in the band of Shh-N after SDS-PAGE (HHAT activity) [2]
human HHAT expressed with the Bac-to-Bac baculovirus system (HHAT enzyme solution of Example 5) | the activity was increased depending on the concentration (FIG. 3) | the activity was increased for 2 hours (FIG. 4) | 
human HHAT (human hedgehog acyltransferase) with a C-terminal FLAG-Tag, crude enzyme solution from transfected HEK293 cells |  |  | Only when the human HHAT crude enzyme solution and the Shh-N were reacted, a band having a radioactivity was recognized in the vicinity of the molecular weight of 21 kDa corresponding to the Shh-N
